A short description of the data set: yeast display, Sf9 membrane polyspecificity reagent, FACS + sequencing; frameworks hold sequencing errors. In short, it runs like this: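 Using colony PCR, genes from sorted yeast display clones were amplified, then sequenced on MiSeq at 2 × 250 and filtered by CDR length. The clones had been stained with 10% biotinylated, detergent-solubilized Sf9 membrane reagent for 1 hour at 4 °C and sorted by FACS into low and high (top ~1%) gates on anti-HA and streptavidin fluorescence. Polyreactivity labels come from the gate of origin.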
With “QVQLVESGGGLVQAGGSLRLSCAASGRTFPNYAMGWYRQAPGKERELVAAITRGVRTHYADSVKGRFTISRDNAKNTVYLQLNSLKQEDTAVYYCARSYRSDGSRFGYWGQGTQVTVSS”, the “polyreactivity (PSR sort gate)” value is “low polyreactivity”.

Take “QVQLVESGGGLVQAGGSLRLSCAASGRTFPPYAMGWYRQAPRKESELVAAISGSGASTYYADSVKGRFTISRDNAKNTVYLQMNSLKPEDTAVYYCAARRGSGKFGKYRGVDYWGQGTQVTVSS”: the “polyreactivity (PSR sort gate)” value is on record as “high polyreactivity”. “QVQLVESGGGLVQAGGSLRLSCAASGRTFPQNAMGWYRQAPGKERELVAAISRSGGRTYYADSVKGRFTISRDNAKNTVYLQMNSLKPEDTAVYYCNTDPRYPRYDYSGQGTQVTVSS”: the “polyreactivity (PSR sort gate)” value is on record as “high polyreactivity”. Regarding “QVQLVESGGGLVQAGGSLRLSCAASGRTFPRYAMGWYRQARGKEREMVAAISGTGGSTYYADSVKGRFTISRDNAKNTFYLQMNSLKPEDTAVYYCAAAFRDGFTRRYGYWGQGTQVTVSS”, the “polyreactivity (PSR sort gate)” value is “high polyreactivity”. The entry for “QVQLVESGGGLVQAGGSLRLSCAASGRTFPRYGMGWYRQAPVKERELVATIRTGGRTNYADSVKGRFTISRDNAKNTVYVLMNSQKPEDTAVYYCATDSSKHPYSPTLLKFDYWGQGTQVTVSS” is “low polyreactivity”; for “QVQLVESGGGLVQAGGSLRLSCAASGRTFPRYTMGRYRQAPRKERELVAASATGGSTNYADSVKGRFTISRDNAKNTVYLHMNSLKPEDTAVYYCAARPYSNRYVLGVYYWGKGTQVTVSS” it is “high polyreactivity”; for “QVQLVESGGGLVQAGGSLRLSCAASGRTFPRYVMGWYRQAPGKERDLVAAIRRSGGSTYYADSVKGRFTISRDNAKNTVYLQMNSLKPDDTAVYYCNRVVYTYISTGSRHGRYYYWGQGTQVTVSS” it is “high polyreactivity”. Regarding “QVQLVESGGGLVQAGGSLRLSCAASGRTFPSYTMGWYRQAPGKERELVAAITWTGGSTYYADSVKGRFTISRDNAKNSVYLQMNCLKPEDTAVYYCADDDYWGQGTQVTVSS”, the “polyreactivity (PSR sort gate)” value is reported as “low polyreactivity”. “QVQLVESGGGLVQAGGSLRLSCAASGRTFPTYTMGWYRQAPGQERELVAAITRGGSTKYADSVKGRFTISRDNAKNTVYLQMNSLKPEDTAVYYCAAVYRYRHSFAYYRHEMDYWGQGTQVTVSS”: the “polyreactivity (PSR sort gate)” value was “low polyreactivity”.

Turning to “QVQLVESGGGLVQAGGSLRLSCAASGRTFPVNGMGWYRQAPGKERELVAAITGGGSTNYADSVKGRFTITRDNAKNTVYLQMNSLKPEDTAVYYCAAGSYSRYLYSLYFDFDYWGQGTQVTVSS”, the “polyreactivity (PSR sort gate)” value was “low polyreactivity”. For “QVQLVESGGGLVQAGGSLRLSCAASGRTFPVYAMGRYRPAPGKERELVAAISWSGGTTYYADSVPGRFTISRDNAKNTVYLQKHSLKPEDTAVYFCAARFGVRRRYDYWGQGTQVTVSS”, the “polyreactivity (PSR sort gate)” value was “high polyreactivity”. Take “QVQLVESGGGLVQAGGSLRLSCAASGRTFPVYAMGWYRQAPGKERELVAAIRARSVRTYYADSVKGRFTISRDNAKNTVYLQMNSLKPEDTAVYYCAAYYLNPGMDYWGQGTQVTVSS”: the “polyreactivity (PSR sort gate)” value was “high polyreactivity”. Take “QVQLVESGGGLVQAGGSLRLSCAASGRTFPVYSMGWYRQAPGKERELVDVITTRVTSTYYADSVKGRFTISRDNAKNSVYLQMNSLKPEDTAVYYCNARTAYTGNYGPPKGGYWGQGTQVTVSS”: the “polyreactivity (PSR sort gate)” value is “high polyreactivity”. On to “QVQLVESGGGLVQAGGSLRLSCAASGRTFPWKVMGWYRQPPGKERELVAAITRSGGSTYYADSVKGRFTISRDNAKNTVYLQMNSLKQEDTAVYYCAKRGYTSSRRWIYDYWGQGTQVTVSS”, for which the “polyreactivity (PSR sort gate)” value is reported as “high polyreactivity”.

On to “QVQLVESGGGLVQAGGSLRLSCAASGRTFPWYTMGWYRQAPGKERELVAAISWSGGSTFYADSVKGRFTISRDNAKNTVYLQMNSLKPEDTAVYYCAARSRPTVQRGYAYGYWGQGTQVTVSS”, for which the “polyreactivity (PSR sort gate)” value was “low polyreactivity”. For “QVQLVESGGGLVQAGGSLRLSCAASGRTFPYNAMGWSRQAPGKERELVAVISSGGGRTYYADSVKGRFTISRDNAKNTVYLQMNSLKPEDTAVYYCNKGGYAIRYDYYWGQGTQVTVSS”, the “polyreactivity (PSR sort gate)” value is recorded as “high polyreactivity”. On to “QVQLVESGGGLVQAGGSLRLSCAASGRTFPYNAMGWYRQAPGKEMELVAAITKSAGRTYYAYSVKGRFTISRDNAKNTVYLQMNSLKPEDTAVYYCNTVTVAYGYTRLYAQYYYWGQGTQVTVSS”, for which the “polyreactivity (PSR sort gate)” value is given as “high polyreactivity”.

As for “QVQLVESGGGLVQAGGSLRLSCAASGRTFPYNAMGWYRQAPGKERELVAAISSGGSTNYADSVKGRFTITRDNAKKTVYLQRNSLKPEDTAVYYCAVTGWPRYTWYSYGYWGQGTQVTVSS”, the “polyreactivity (PSR sort gate)” value was “low polyreactivity”. Consider “QVQLVESGGGLVQAGGSLRLSCAASGRTFPYNAMGWYRQAPGKERELVAVISSSGGSTYYADSVKGRFTISRDNAKNTVYLQMNSLKPEDTAVYYCNTRPYYYRRPGYRYSGYDYWGQGTQVTVSS”, for which the “polyreactivity (PSR sort gate)” value is given as “high polyreactivity”. As for “QVQLVESGGGLVQAGGSLRLSCAASGRTFPYNVMGWYRQAPRKERELVAAITYDGGNTYYADSVKGRFTISRDNAKNTVYLQMNSLKPEDTAVYYCARPLTYYDEFDSWGQGTQVTVSS”, the “polyreactivity (PSR sort gate)” value is recorded as “low polyreactivity”. In the case of “QVQLVESGGGLVQAGGSLRLSCAASGRTFPYYAMGWYRQAPGKEMELVAAISSSGGRTYYADSVKGRFTISRDNAKNTVYLQMNSLKPEDTAVYYCNAESTYYPSGEDYWGQGTQVTVSS”, the “polyreactivity (PSR sort gate)” value is “low polyreactivity”.

Regarding “QVQLVESGGGLVQAGGSLRLSCAASGRTFPYYAMGWYRQAPGKEREFVAGISRTGGSTYYADSVKGRFTISRDNAKNTVYLQMNSLKPEDTAVYYCNAPYILTQQGGRRYDYWGQGTQVTVSS”, the “polyreactivity (PSR sort gate)” value is “high polyreactivity”. Consider “QVQLVESGGGLVQAGGSLRLSCAASGRTFPYYAMGWYRQAPGKETELVASISYRGGNTYYADSVKGRFTISRDNAKNTVYLQMNSQKPEDTAVYYCAKTGRYSARDDYWGQGTQVTVSS”, for which the “polyreactivity (PSR sort gate)” value is “high polyreactivity”.

On to “QVQLVESGGGLVQAGGSLRLSCAASGRTFPYYDKGWYRQAPGKERELVATISWSGGTTYADSVKGRFTISRDNAKNTVYLQMNSLKPEDTAVYFCAAVSYVYRYYWGQGTQVTVSS”, for which the “polyreactivity (PSR sort gate)” value is “low polyreactivity”.

Consider “QVQLVESGGGLVQAGGSLRLSCAASGRTFQDNAMGWSRQEPGKERELVAAISWRGGSTNYADSVKGRFTISRDNAKNTVFLQLNSLKPEDTAVYYCNRDPRKYGKLDYWGQGTQVTVSS”, for which the “polyreactivity (PSR sort gate)” value is given as “low polyreactivity”. Regarding “QVQLVESGGGLVQAGGSLRLSCAASGRTFQDNAMGWYRQAPGKERELVAAMSWRGGSTNYADSVKGRFTISRDNAKNTVYLQMKSLKPEDTAVYYCYRDQRKYGKLDYWVQGTQVTVSS”, the “polyreactivity (PSR sort gate)” value is listed as “low polyreactivity”. Consider “QVQLVESGGGLVQAGGSLRLSCAASGRTFQFYAMGWYRQAPGKERELVAAITYSGDSTYYADSVKGRFTISRDNAKNTVYLQMNSLKPEDTAVYYCAAGVWFYWYEYDYWGQGTQVTVSS”, for which the “polyreactivity (PSR sort gate)” value is “high polyreactivity”.

Turning to “QVQLVESGGGLVQAGGSLRLSCAASGRTFQFYVMGWYRQAPGKERELVASIRSGGSTNYADSVKGRFTISRDNAKNTVYLQMNSLKPEDTAVYYFAARVASPYYRYDFWGQGTQVTVSS”, the “polyreactivity (PSR sort gate)” value is listed as “low polyreactivity”.

Regarding “QVQLVESGGGLVQAGGSLRLSCAASGRTFQKNTMGWYRQPPGKERELVAAIDYSATTTYYADSVKGRFTSSRDTAKNTVYLQMNSLKPEDTAVYYCAARWSYPRWEFDYWGQGTQVTVTS”, the “polyreactivity (PSR sort gate)” value is on record as “high polyreactivity”.

For “QVQLVESGGGLVQAGGSLRLSCAASGRTFQLNAMGWYRQAPGKERELVAAISTRGGSTYYADSVKGRFTISRDNAKNTVYLQMNRLKPEDTAVYYCAAVTKTLYRSYFLMYYWGQGTQVTVSS”, the “polyreactivity (PSR sort gate)” value is on record as “high polyreactivity”.

For the sequence “QVQLVESGGGLVQAGGSLRLSCAASGRTFQLNAMGWYRQGPGNERELVAAISTRGGSTYYADSVKGRFTISRDNAKNTVYLQMNSLKPEDTAVYYCAKDPSFTRGYKEGGGYDYWGQGTQVTVSS”, the “polyreactivity (PSR sort gate)” value is listed as “high polyreactivity”.

With “QVQLVESGGGLVQAGGSLRLSCAASGRTFQLYAMGWYRQAPGKEMELVAAISTRGGSTYYADSVKGRFTISRDNAKNTVYLLMNSLKPEDTAVYYCAKDPSFTRGYKEGGGYDYWGQGTQVNVSS”, the “polyreactivity (PSR sort gate)” value is on record as “high polyreactivity”. For “QVQLVESGGGLVQAGGSLRLSCAASGRTFQRYTMGWYRQAPGKERELVASISRSGGSTYYADSVKGRFTISRDNAKNTVYLQMNSLKPEDTAVYYCATRSLFWNRNHYRVSSPVLYDYWGQGTQVTVSS”, the “polyreactivity (PSR sort gate)” value is given as “high polyreactivity”. For “QVQLVESGGGLVQAGGSLRLSCAASGRTFQSYAMGWYRQEPGKERELVAAITITGGRTYYADSVKGRFTISRDNAKNTVYLQMNSLKPEDTAVYYCAAEEYSHYTLGYVYWGQGTQVTVSS”, the “polyreactivity (PSR sort gate)” value is recorded as “low polyreactivity”. In the case of “QVQLVESGGGLVQAGGSLRLSCAASGRTFQTNAMGWYRQAPGKERELVAAISSTGGSTYYADSVKGRFTISRDNAKNTVYLQMNRLKPEDTAVYYCNAGRTYRYDYWGQGTQVTVSS”, the “polyreactivity (PSR sort gate)” value was “high polyreactivity”. Consider “QVQLVESGGGLVQAGGSLRLSCAASGRTFQTNAMGWYRQAPGKERELVAAISWSGGRTYYADSVKGRFTISRDNAKNTVYLQMNSLKPEDTAVYYCAARQWYRYKVRFDYCGQGTQVTVSS”, for which the “polyreactivity (PSR sort gate)” value is listed as “high polyreactivity”. Consider “QVQLVESGGGLVQAGGSLRLSCAASGRTFQVNAMGWYRQAPGKERELVAGITQRAGSTYYADSVKGRFTISRDNAKNTVYLQMNSLKPEDTAVYYCAAQDVHLWYENYYWGQGTQVTVSS”, for which the “polyreactivity (PSR sort gate)” value was “low polyreactivity”. As to “QVQLVESGGGLVQAGGSLRLSCAASGRTFQWYAMGWYRQAPGKERELVAAIRYSAGSTYYADSVKGRFTISRDHAKNTVYLQMNSLKREDTAVYYCAAEPYPYGPYYFLWLRYDYWGQGTQVTVSS”, the “polyreactivity (PSR sort gate)” value is “low polyreactivity”. The result for “QVQLVESGGGLVQAGGSLRLSCAASGRTFQWYAMGWYRQAPGKERELVAAITSGGNTYYADSVKGRFTISRDNAKNTVYLQMNSLKPEDTAVYYCFLFYSRSMGYWGQGTQVTVSS” reads “high polyreactivity”; that for “QVQLVESGGGLVQAGGSLRLSCAASGRTFQWYAMGWYRQAPGKERELVAGISFSGGSTYYADSVKGRFTISRDNAKNTVYLQMNSLKPEDTAVYYCAARRFSPGSSGHGYWGQGTQLTVSS”, “high polyreactivity”.

The record behind these values is the nanobody polyreactivity screen of Harvey et al. (2022).
